Patent publication US20230357389A1 (Innovent, published 2023)
Each block holds one binder with its values, some of them ahead of it.

Columns and labels:
[1] = molecular target: T1, human CLDN18.2 on the cell surface (human, UniProt P56856-2 1-261); experiment: cell-based or functional assay
[2] = molecular target: T1, human CLDN18.2 on the cell surface; experiment: flow cytometry (FACS) titration on DAN-G-hCLDN18.2 pancreatic cancer cells
[3] = molecular target: T1, human CLDN18.2 on the cell surface; experiment: flow cytometry (FACS) titration on CHO-hCLDN18.2 cells, PE anti-human Fc secondary antibody; the EC50 table prints no unit, nM is taken from the axis Log[Conc.(nM)]
Description: (§1) Specifically, the cells to be tested (CHO-hCLDN18.2 and CHO-hCLDN18.1) obtained in Example 1 were counted and diluted to 1×10⁶ cells/ml, added to the U-shaped bottom 96-well plate at 100 μl/well, and then centrifuged at 500 g for 5 min before the cell culture medium was removed. […] The initial concentration of the antibody was 900 nM, and it was diluted three times serially, a total of 10 concentration points before leaving it on ice for 30 min, and removing the supernatant at 500 g for 5 min, and washing the cells with PBS once before adding goat anti-human Fc PE-labeled secondary antibody (Southern Biotech, J2815-5H87B) at 100 μl/well, and incubating in dark on ice for 30 min, removing the supernatant at 500 g for 5 min, and washing the cells with PBS once. 50 μl 1×PBS was used to resuspend cells and FACS was used for detection. GraphPad Prism software was used to analyze the experimental data and get FIG. 1 and FIG. 2.

[4] = molecular target: T1, human CLDN18.2 on the cell surface; experiment: flow cytometry (FACS) titration on NUGC-4 gastric cancer cells
[5] = molecular target: T2, Human Claudin 18.2 (GenScrip, P50251802) (human, UniProt P56856-2 1-261, limits assumed); experiment: SPR (Biacore T200), CLDN18.2 amine-coupled to chip, antibody as analyte, 1:1 model
T2 construct: Bought protein; also called human CLDN18.2
Description: After coupling, 1 M ethanolamine was injected to seal the remaining activation sites. The binding and dissociation between the chip surface antigen and the antibody in the mobile phase were detected by Biocore (GE Healthcare, T200) according to the manufacturer's instructions to obtain the affinity and kinetic constants. The serially diluted antibody (0-100 nM) flowed through the chip surface in order from low concentration to high concentration, with binding time of 180 s and dissociation time of 600 s. Finally, 10 mM Glycine pH 1.5 (GE Healthcare, BR-1003-54) was used to regenerate the chip. The resulting data were analyzed using the Biocore T200 analysis software and the dynamic analysis was conducted using the 1:1 combination model.

[6] = molecular target: T3, human CLDN18.1 on the cell surface (human, UniProt P56856 1-261); experiment: flow cytometry (FACS) titration on CHO-hCLDN18.1 cells, PE anti-human Fc secondary antibody
T3 construct: whole, on cells; also called CHO-hCLDN18.1
Description: as §1

[7] = molecular target: T4, human CD3 complex on T cells (human, UniProt P07766 23-207; P04234 22-171; P09693 23-182; P20963 22-164); experiment: flow cytometry on Jurkat cells (human CD3 complex), PE anti-human Fc secondary antibody; the EC50 table prints no unit, nM is taken from the axis Concentration of antibody (nM)
T4 construct: whole, on cells; also called CD3 at the cellular level; Jurkat cells
T4 sequence (P07766 23-207, chain 1 of 4): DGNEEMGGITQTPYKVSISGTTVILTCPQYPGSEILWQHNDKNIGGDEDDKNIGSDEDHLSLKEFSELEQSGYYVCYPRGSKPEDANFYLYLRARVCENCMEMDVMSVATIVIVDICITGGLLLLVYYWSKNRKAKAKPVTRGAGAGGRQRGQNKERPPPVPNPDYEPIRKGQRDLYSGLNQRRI
T4 sequence (P04234 22-171, chain 2 of 4): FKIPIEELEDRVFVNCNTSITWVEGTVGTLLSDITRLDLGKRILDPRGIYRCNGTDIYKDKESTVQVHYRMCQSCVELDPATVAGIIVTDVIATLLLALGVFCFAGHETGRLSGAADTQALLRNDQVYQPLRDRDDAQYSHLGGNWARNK
T4 sequence (P09693 23-182, chain 3 of 4): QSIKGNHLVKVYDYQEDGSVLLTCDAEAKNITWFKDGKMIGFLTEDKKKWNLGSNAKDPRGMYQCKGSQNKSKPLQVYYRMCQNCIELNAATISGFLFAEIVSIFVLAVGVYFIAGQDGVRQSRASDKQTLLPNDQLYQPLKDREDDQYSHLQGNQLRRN
T4 sequence (P20963 22-164, chain 4 of 4): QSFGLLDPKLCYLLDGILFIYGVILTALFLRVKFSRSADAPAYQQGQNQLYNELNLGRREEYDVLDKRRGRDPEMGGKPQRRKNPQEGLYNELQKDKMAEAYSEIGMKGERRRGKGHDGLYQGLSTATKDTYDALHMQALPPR
Text: Jurkat cells were immortalized human T lymphocytes, which expressed human CD3 complex. The cell line was used to detect the binding of the antibody of invention and the cell.

B1: bispecific antibody 030 (CLDN18.2 x CD3) (bispecific antibody, human IgG1, kappa, lambda, L234A L235A)
heavy 1: not shown
light 1: not shown
heavy 2: not shown
light 2: QAVVTQEPSLTVSPGGTVTLTCRSSTGAVTTSNYANWVQQKPGQAPRGLIGGTNKRAPGVPARFSGSLLGDKAALTLLGAQPEDEAEYYCALWYSNLWVFGQGTKLTVLGQPKAAPSVTLFPPSSEELQANKATLVCLISDFYPGAVTVAWKADSSPVKAGVETTTPSKQSNNKYAASSYLSLTPEQWKSHRSYSCQVTHEGSTVEKTVAPTECS
- EC50 of PBMC-mediated killing of gastric cancer cell NUGC-4 [1]: < 0.001 nM
- EC50 of PBMC-mediated killing of pancreatic cancer cell DAN-G-hCLDN18.2 [1]: < 0.1 pM

B2: bispecific antibody 032 (CLDN18.2 x CD3) (bispecific antibody, human IgG1, kappa, lambda, L234A L235A)
heavy 1: not shown
light 1: not shown
heavy 2: not shown
light 2: QAVVTQEPSLTVSPGGTVTLTCRSSTGAVTTSNYANWVQQKPGQAPRGLIGGTNKRAPGVPARFSGSLLGDKAALTLLGAQPEDEAEYYCALWYSNLWVFGQGTKLTVLGQPKAAPSVTLFPPSSEELQANKATLVCLISDFYPGAVTVAWKADSSPVKAGVETTTPSKQSNNKYAASSYLSLTPEQWKSHRSYSCQVTHEGSTVEKTVAPTECS
- EC50 of PBMC-mediated killing of gastric cancer cell NUGC-4 [1]: < 0.001 nM
- EC50 of PBMC-mediated killing of pancreatic cancer cell DAN-G-hCLDN18.2 [1]: < 0.1 pM

B3: bispecific antibody 033 (CLDN18.2 x CD3) (bispecific antibody, human IgG1, kappa, lambda, L234A L235A)
heavy 1: not shown
light 1: not shown
heavy 2: not shown
light 2: QAVVTQEPSLTVSPGGTVTLTCRSSTGAVTTSNYANWVQQKPGQAPRGLIGGTNKRAPGVPARFSGSLLGDKAALTLLGAQPEDEAEYYCALWYSNLWVFGQGTKLTVLGQPKAAPSVTLFPPSSEELQANKATLVCLISDFYPGAVTVAWKADSSPVKAGVETTTPSKQSNNKYAASSYLSLTPEQWKSHRSYSCQVTHEGSTVEKTVAPTECS
- killing activity on NUGC-4 and DAN-G-hCLDN18.2 relative to 030 and 032 [1]: ~1000 times lower than 030 and 032

B4: control antibody zolbetuximab (antibody, human IgG1, kappa, V domains shown)
VH: QVQLQQPGAELVRPGASVKLSCKASGYTFTSYWINWVKQRPGQGLEWIGNIYPSDSYTNYNQKFKDKATLTVDKSSSTAYMQLSSPTSEDSAVYYCTRSWRGNSFDYWGQGTTLTVSS
VL: DIVMTQSPSSLTVTAGEKVTMSCKSSQSLLNSGNQKNYLTWYQQKPGQPPKLLIYWASTRESGVPDRFTGSGSGTDFTLTISSVQAEDLAVYYCQNDYSYPFTFGSGTKLEIKR
notes: also called Zmab; positive control antibody Zmab
- EC50 (read off the curve) [2]: ~2 nM
- EC50 [3]: 3.31 nM
- EC50 (read off the curve) [4]: ~3 nM

B5: anti-CLDN18.2 monoclonal antibody HB37A6 (antibody, human IgG1, kappa, V domains shown)
VH: EVQLLDSGGGLVQPGGSLRLSCAASGFTFSSYVMSWVRQAPGKGLNWVSTISHSGGSTYYADSVKGRFTISRDNSKNTLYLQMNSLRAEDTAVYYCAIDAPYYDILTGYRYWGQGTLVTVSS
VL: not shown
notes: also called whole human antibody HB37A6
- Kd [5]: 0.72 nM
- koff [5]: 0.000306 s⁻¹
- kon [5]: 425000 M⁻¹ s⁻¹
- binding result [6]: no binding
- EC50 [3]: 5.51 nM
- EC50 (read off the curve) [4]: ~1 nM

The remaining lines, values ahead:

- EC50 [7]: 3.42 nM
B6: anti-CD3 monoclonal antibody HzSP34.87 (antibody, human IgG1, lambda, L234A L235A, V domains shown)
VH: EVQLVESGGGLVQPGGSLKLSCAASGFTFNTYAMNWVRQASGKGLEWVGRIRSKYNNYATYYADSVKDRFTISRDDSKSTLYLQMNSLKTEDTAVYYCARHYNFGQSYVSWFAYWGQGTTVTVSS
VL: QAVVTQEPSLTVSPGGTVTLTCRSSTGAVTTSNYANWVQQKPGQAPRGLIGGTNKRAPGVPARFSGSLLGDKAALTLLGAQPEDEAEYYCALWYSNLWVFGQGTKLTVLG

- EC50 [7]: 3 nM
B7: anti-CD3 monoclonal antibody HzSP34.97 (antibody, human IgG1, lambda, L234A L235A, V domains shown)
VH: EVQLVESGGGLVQPGGSLKLSCAASGFTFNTYAMNWVRQASGKGLEWVGRIRSKAGGYATYYADSVKDRFTISRDDSKSTLYLQMNSLKTEDTAVYYCARHGNFGQSYVSWFAYWGQGTTVTVSS
VL: QAVVTQEPSLTVSPGGTVTLTCRSSTGAVTTSNYANWVQQKPGQAPRGLIGGTNKRAPGVPARFSGSLLGDKAALTLLGAQPEDEAEYYCALWYSNLWVFGQGTKLTVLG
